Measured values as given in article PMC6515139, “Oligomeric Architecture of Mouse Activating Nkrp1 Receptors on Living Cells” (International Journal of Molecular Sciences, 2019).
Changes are numbered by the printed parent chain. Names and notes keep the numbering of the source.

Experiments:
[1] = target: EGFP-Nkrp1a_C74,88S (mouse (C57BL/6)) (UniProt P27811); test: FRET or BRET; homo-FRET (steady-state fluorescence anisotropy of EGFP, time-domain, TCSPC) at the plasma membrane of living transfected Jurkat cells on PLL-coated slides, 37 °C; semi-quantitative, calibrated by monomeric LAT and dimeric CD8α
[2] = target: EGFP-Nkrp1a_C88S (mouse (C57BL/6)) (UniProt P27811); test: as above
[3] = target: EGFP-Nkrp1a_C74S (mouse (C57BL/6)) (UniProt P27811); test: as above
[4] = target: EGFP-Nkrp1c2 (mouse (C57BL/6)); test: as above
[5] = target: the molecule itself; test: as above
[6] = target: the molecule itself; test: SEC + other: SDS-PAGE under reducing and non-reducing conditions; refolded ectodomains on calibrated Superdex 75 (Nkrp1a^ECTO: 150 mM NaCl, 15 mM Tris-HCl pH 7.5; the others: 10 mM HEPES pH 7.4, 100 mM NaCl); main peaks analysed on 15% SDS-PAGE

## EGFP-Nkrp1a_C74,88S (from UniProt P27811 1-227) (receptor)
[1]
  steady-state anisotropy, mean: 0.285
  steady-state anisotropy, median: 0.283

## EGFP-Nkrp1a_C88S (from UniProt P27811 1-227) (receptor)
[2]
  steady-state anisotropy, mean: 0.267
  steady-state anisotropy, median: 0.266

## EGFP-Nkrp1a_C74S (from UniProt P27811 1-227) (receptor)
[3]
  steady-state anisotropy, mean: 0.273
  steady-state anisotropy, median: 0.272

## EGFP-Nkrp1c2 (receptor)
[4]
  steady-state anisotropy, mean: 0.248
  steady-state anisotropy, median: 0.249

B1: EGFP-Nkrp1a (receptor, mouse (C57BL/6), UniProt P27811 1-227, looked up)
chain: MDTARVYFGLKPPRTPGAWHESPPSLPPDACRCPRSHRLALKLSCAGLILLVVTLIGMSVLVRVLIQKPSIEKCYVLIQENLNKTTDCSAKLECPQDWLSHRDKCFQVSHVSNTWEEGLVDCDGKGATLMLIQDQEELRFLLDSIKEKYNSFWIGLRYTLPDMNWKWINGSTLNSDVLKITGDTENDSCAAISGDKVTFESCNSDNRWICQKELYHETLSNYVGYGH
notes: last residue H227; Vector pXJ41; also called Nkrp1a1; a1 isoform; source: Jurkat, transiently transfected, living cells; COS-7, transiently transfected, in lysate; not shown: EGFP (with spacer GSGGGS), N-terminal, kept
[5]
  steady-state anisotropy, mean: 0.269
  steady-state anisotropy, median: 0.271

B2: EGFP-Nkrp1c1 (receptor, mouse (C57BL/6), UniProt P27814 1-223, looked up)
chain: MDTASIYLGLKPPRTLGAWHESPPSLPPDACRCPRSHRLALKLSCAGLILLVLTLIGMSVLVRVLVQKPSREKCCVFIQENLNKTTDCSVNLECPQDWLLHRDKCFHVSQVSNTWEEGQADCGRKGATLLLIQDQEELRFLLDSIKEKYNSFWIGLRFTLPDMNWKWINGTTFNSDVLKITGVTENGSCASILGDKVTPESCASDNRWICQKELNHETPSNDS
notes: last residue S223; Vector pXJ41; also called c1 isoform; source: Jurkat, transiently transfected, living cells; COS-7, transiently transfected, in lysate; not shown: EGFP (with spacer GSGGGS), N-terminal, kept
[5]
  steady-state anisotropy, mean: 0.244
  steady-state anisotropy, median: 0.242

B3: EGFP-Nkrp1f (receptor, mouse (C57BL/6), UniProt Q8VD98 1-217, looked up)
chain: MDTSKVHGNVKPFRCPGYKQASSPSFSPDACRCPHWHHLALKSGCAGLILLLLSLIGLSVLVRFLVQKPPIEKCSVAAQENRTELTGRSAILECPRYWHPHWNKCLFVSQISRPWAEGRDACSMEDAILLLIENKEELRFVQNLIKGKEQLFFIGLKYVQKEKIWKWIDGSILNPNLLRITGKDKENSCAIISHTEVFSDSCSSDNHWICQKTLIHV
notes: last residue V217; Vector pXJ41; also called f isoform; source: Jurkat, transiently transfected, living cells; COS-7, transiently transfected, in lysate; not shown: EGFP (with spacer GSGGGS), N-terminal, kept
[5]
  steady-state anisotropy, mean: 0.25
  steady-state anisotropy, median: 0.25

B4: EGFP-Nkrp1f_C74S (receptor, mouse (C57BL/6), UniProt Q8VD98 1-217, looked up)
chain: B3 chain with C74S
notes: Two extra C-terminal residues (Thr-Gly) possible as for m8 (surmise from the primer); also called C74S mutant of Nkrp1f; source: Jurkat, transiently transfected, living cells; COS-7, transiently transfected, in lysate; not shown: EGFP (with spacer GSGGGS), N-terminal, kept
[5]
  steady-state anisotropy, mean: 0.281
  steady-state anisotropy, median: 0.281

B5: Nkrp1c1^ECTO (domain or fragment, mouse (C57BL/6), UniProt P27814 70-223, looked up)
chain: SREKCCVFIQENLNKTTDCSVNLECPQDWLLHRDKCFHVSQVSNTWEEGQADCGRKGATLLLIQDQEELRFLLDSIKEKYNSFWIGLRFTLPDMNWKWINGTTFNSDVLKITGVTENGSCASILGDKVTPESCASDNRWICQKELNHETPSNDS
notes: mouse (C57BL/6) Nkrp1c isoform c1 ectodomain with stalk, residues S70-S223; Cloned into pET-30a(+) between NdeI and HindIII; an initiator Met may precede S70 (surmise); The monomeric form bears cysteamine on C88; the dimeric form has a C88-C88 disulfide; also called Nkrpc1^ECTO; recombinant ectodomain of Nkrp1c1
[6]
  stoichiometry N: 2

B6: Nkrp1f^ECTO (domain or fragment, mouse (C57BL/6), UniProt Q8VD98 67-217, looked up)
chain: QKPPIEKCSVAAQENRTELTGRSAILECPRYWHPHWNKCLFVSQISRPWAEGRDACSMEDAILLLIENKEELRFVQNLIKGKEQLFFIGLKYVQKEKIWKWIDGSILNPNLLRITGKDKENSCAIISHTEVFSDSCSSDNHWICQKTLIHV
notes: mouse (C57BL/6) Nkrp1f ectodomain with stalk, residues Q67-V217; Cloned into pET-30a(+) between NdeI and HindIII; an initiator Met may precede Q67 (surmise); The monomeric form bears cysteamine on C74; the dimeric form has a C74-C74 disulfide; also called recombinant ectodomain of Nkrp1f
[6]
  stoichiometry N: 2
